Laboratory results published in the supplement of paper PMC10567573.

B1: MIA2 (parent)
chain: NSISSDKEATVPCTEILTEKKDTI
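Further: lentivirally expressed fusions sorted by FACS into six bins by GFP to DsRed ratio, PSI derived from sequencing read proportions per bin multiplied by bin number.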

Variants of: B1
Test: protein stability index of a GFP-peptide fusion (GPS, HEK-293T) (PSI 1-6); higher = more stable
Details: c terminus: a fixed tail appended
With NSISSDCEATVPCTEILTEKKDTI [K7C] the protein stability index was 5.31. Work on NSISSDGEATVPCTEILTEKKDTI [K7G] yielded a protein stability index of 5.8. For NSISSDEEATVPCTEILTEKKDTI [K7E], the protein stability index was 5.21. NSISSDSEATVPCTEILTEKKDTI [K7S] showed a protein stability index of 5.5. Variant NSISSDFEATVPCTEILTEKKDTI [K7F] has a protein stability index of 4.95. Work on NSISSDVEATVPCTEILTEKKDTI [K7V] yielded a protein stability index of 4.95. Variant NSISSDWEATVPCTEILTEKKDTI [K7W] has a protein stability index of 5.05. Work on NSISSDREATVPCTEILTEKKDTI [K7R] yielded a protein stability index of 5.07. For NSISSDMEATVPCTEILTEKKDTI [K7M], the protein stability index was 4.95. With NSISSDKEATVPCTEDLTEKKDTI [I16D] the protein stability index was 5.81. NSISSDKEATVPCTERLTEKKDTI [I16R] showed a protein stability index of 5.57. Variant NSISSDKEATVPCTEYLTEKKDTI [I16Y] has a protein stability index of 5.12. Variant NSISSDKEATVPCTEVLTEKKDTI [I16V] has a protein stability index of 5.45. In the case of NSISSDKEATVPCTEHLTEKKDTI [I16H], the protein stability index is reported as 5.49. In the case of NSISSDKEATVPCTEELTEKKDTI [I16E], the protein stability index is reported as 5.62. Variant NSISSDKEATVPCTEGLTEKKDTI [I16G] has a protein stability index of 5.11. Variant NSISSDKEATVPCTENLTEKKDTI [I16N] has a protein stability index of 5.47. NSISSDKEATVPCTEALTEKKDTI [I16A] showed a protein stability index of 5.53. In the case of NSISSDKEATVPCTEWLTEKKDTI [I16W], the protein stability index is reported as 5.26. NSISSDKEAIVPCTEILTEKKDTI [T10I] gave a protein stability index of 5.2. Work on NSISSDKEASVPCTEILTEKKDTI [T10S] yielded a protein stability index of 5.72. Work on NSISSDKEACVPCTEILTEKKDTI [T10C] yielded a protein stability index of 5.5. NSISSDKEAEVPCTEILTEKKDTI [T10E] gave a protein stability index of 5.82. Variant NSISSDKEADVPCTEILTEKKDTI [T10D] has a protein stability index of 5.61. With NSISSDKEAWVPCTEILTEKKDTI [T10W] the protein stability index was 5.07. With NSISSDKEALVPCTEILTEKKDTI [T10L] the protein stability index was 5.43. With NSISSDKEATVPCTEIVTEKKDTI [L17V] the protein stability index was 5.18. Work on NSISSDKEATVPCTEIMTEKKDTI [L17M] yielded a protein stability index of 5.28. For NSISSDKEATVPCTEIQTEKKDTI [L17Q], the protein stability index was 5.4. In the case of NSISSDKEATVPCTEIATEKKDTI [L17A], the protein stability index is reported as 5.8. NSISSDKEATVPCTEIKTEKKDTI [L17K] showed a protein stability index of 5.46. For NSISSDKEATVPCTEIRTEKKDTI [L17R], the protein stability index was 5.45. NSISSDKEATVPCTEILTESKDTI [K20S] gave a protein stability index of 5.54. NSISSDKEATVPCTEILTECKDTI [K20C] showed a protein stability index of 5.25. In the case of NSISSDKEATVPCTEILTERKDTI [K20R], the protein stability index is reported as 5.17. Variant NSISSDKEATVPCTEILTEYKDTI [K20Y] has a protein stability index of 4.75. For NSISSDKEATVPCTEILTENKDTI [K20N], the protein stability index was 5.53. NSISSDKEATVPCTEILTEPKDTI [K20P] gave a protein stability index of 5.3. With NSISSDKEATVPCTEILTEGKDTI [K20G] the protein stability index was 5.47. Variant NSISSDKEATVPCTEILPEKKDTI [T18P] has a protein stability index of 5.26. Variant NSISSDKEATVPCTEILNEKKDTI [T18N] has a protein stability index of 5.46. Variant NSISSDKEATVPCTEILSEKKDTI [T18S] has a protein stability index of 5.39. Variant NSISSDKEATVPCTEILCEKKDTI [T18C] has a protein stability index of 5.05. For NSISSDKEATVPCTEILAEKKDTI [T18A], the protein stability index was 4.93. In the case of NSISSDKEATVPCTEILVEKKDTI [T18V], the protein stability index is reported as 5.12. NSISSDKEATVPCTEILKEKKDTI [T18K] showed a protein stability index of 5.42. NSISSYKEATVPCTEILTEKKDTI [D6Y] gave a protein stability index of 4.71. NSISSVKEATVPCTEILTEKKDTI [D6V] gave a protein stability index of 5.14. Variant NSISSKKEATVPCTEILTEKKDTI [D6K] has a protein stability index of 5.2. For NSISSPKEATVPCTEILTEKKDTI [D6P], the protein stability index was 5.35. NSISSSKEATVPCTEILTEKKDTI [D6S] gave a protein stability index of 5.71. Work on NSISSTKEATVPCTEILTEKKDTI [D6T] yielded a protein stability index of 5.31. With NSISSHKEATVPCTEILTEKKDTI [D6H] the protein stability index was 4.89. Variant NSISSAKEATVPCTEILTEKKDTI [D6A] has a protein stability index of 5.45. For NSISSMKEATVPCTEILTEKKDTI [D6M], the protein stability index was 5. NSISSDKPATVPCTEILTEKKDTI [E8P] gave a protein stability index of 5.27. Variant NSISSDKTATVPCTEILTEKKDTI [E8T] has a protein stability index of 5.17. Work on NSISSDKMATVPCTEILTEKKDTI [E8M] yielded a protein stability index of 5.14. For NSISSDKGATVPCTEILTEKKDTI [E8G], the protein stability index was 5.37. Variant NSISSDKHATVPCTEILTEKKDTI [E8H] has a protein stability index of 4.91. Variant NSISSDKNATVPCTEILTEKKDTI [E8N] has a protein stability index of 5.31. In the case of NSISSDKWATVPCTEILTEKKDTI [E8W], the protein stability index is reported as 4.73. Variant NSISSDKVATVPCTEILTEKKDTI [E8V] has a protein stability index of 4.99. NSISSDKSATVPCTEILTEKKDTI [E8S] showed a protein stability index of 5.46. With NSISSDKEATVPCTWILTEKKDTI [E15W] the protein stability index was 4.13. With NSISSDKEATVPCTVILTEKKDTI [E15V] the protein stability index was 4.66. In the case of NSISSDKEATVPCTQILTEKKDTI [E15Q], the protein stability index is reported as 5.32. Work on NSISSDKEATVPCTLILTEKKDTI [E15L] yielded a protein stability index of 4.57. With NSISSDKEATVPCTPILTEKKDTI [E15P] the protein stability index was 5.16. With NSISSDKEATVPCTNILTEKKDTI [E15N] the protein stability index was 5.23. For NSISSDKEATVPCTGILTEKKDTI [E15G], the protein stability index was 4.92. For NSISSDKEATVPCTYILTEKKDTI [E15Y], the protein stability index was 4.68. NSISSDKEATVPCTCILTEKKDTI [E15C] gave a protein stability index of 4.8. NSISSDKEATVPCTKILTEKKDTI [E15K] showed a protein stability index of 4.92. For NSISSDKEATVPCTTILTEKKDTI [E15T], the protein stability index was 5.46. NSISSDKEATVPCTMILTEKKDTI [E15M] gave a protein stability index of 4.68. Variant VSISSDKEATVPCTEILTEKKDTI [N1V] has a protein stability index of 5. In the case of ISISSDKEATVPCTEILTEKKDTI [N1I], the protein stability index is reported as 4.79. In the case of RSISSDKEATVPCTEILTEKKDTI [N1R], the protein stability index is reported as 5.48. For LSISSDKEATVPCTEILTEKKDTI [N1L], the protein stability index was 5.09. TSISSDKEATVPCTEILTEKKDTI [N1T] gave a protein stability index of 5.05. Variant PSISSDKEATVPCTEILTEKKDTI [N1P] has a protein stability index of 5.68. Variant DSISSDKEATVPCTEILTEKKDTI [N1D] has a protein stability index of 5.25. CSISSDKEATVPCTEILTEKKDTI [N1C] gave a protein stability index of 5.27. In the case of YSISSDKEATVPCTEILTEKKDTI [N1Y], the protein stability index is reported as 4.81. With ASISSDKEATVPCTEILTEKKDTI [N1A] the protein stability index was 5.42. Variant SSISSDKEATVPCTEILTEKKDTI [N1S] has a protein stability index of 5.62. Variant NSISSDKEATVLCTEILTEKKDTI [P12L] has a protein stability index of 4.54. For NSISSDKEATVNCTEILTEKKDTI [P12N], the protein stability index was 5.51. With NSISSDKEATVSCTEILTEKKDTI [P12S] the protein stability index was 5.63. In the case of NSISSDKEATVFCTEILTEKKDTI [P12F], the protein stability index is reported as 4.92. Variant NSISSDKEATVACTEILTEKKDTI [P12A] has a protein stability index of 5.49. In the case of NSISSDKEATVMCTEILTEKKDTI [P12M], the protein stability index is reported as 5.21. NSISSDKEATVRCTEILTEKKDTI [P12R] gave a protein stability index of 5.38.
